Legend:
human complement C4b [1] = biological target: T1, human complement C4b (human, UniProt P0C0L4, biotin (EZ link Maleimide-PEG2-Biotin) coupled to its thiol group, only where C4b was held on the SPR chip); assay: SPR; biotinylated nanobodies (100 nM) spotted on a streptavidin chip; kinetic titration with C4b as analyte, five-step twofold dilution without regeneration, last dissociation 1 h; 20 mM HEPES pH 7.4, 150 mM NaCl, 3 mM MgCl2; NbE11 and NbH11 fitted with mass transport; duplicate; conditions: both partners purified
T1 construct: beta chain (75 kDa) of human complement C4; alpha' chain (87 kDa) of human C4b, the alpha chain of C4 after removal of C4a; gamma chain (33 kDa) of human complement C4; One molecule for unlabelled C4b (SEC, cryo-EM, analyte in SPR), C4b biotinylated at the thiol (ligand in SPR) and C4b deposited on erythrocytes from serum; The CTC domain is not in the deposited models; source: bought: Complement …
T1 sequence (P0C0L4 20-675, chain 1 of 3): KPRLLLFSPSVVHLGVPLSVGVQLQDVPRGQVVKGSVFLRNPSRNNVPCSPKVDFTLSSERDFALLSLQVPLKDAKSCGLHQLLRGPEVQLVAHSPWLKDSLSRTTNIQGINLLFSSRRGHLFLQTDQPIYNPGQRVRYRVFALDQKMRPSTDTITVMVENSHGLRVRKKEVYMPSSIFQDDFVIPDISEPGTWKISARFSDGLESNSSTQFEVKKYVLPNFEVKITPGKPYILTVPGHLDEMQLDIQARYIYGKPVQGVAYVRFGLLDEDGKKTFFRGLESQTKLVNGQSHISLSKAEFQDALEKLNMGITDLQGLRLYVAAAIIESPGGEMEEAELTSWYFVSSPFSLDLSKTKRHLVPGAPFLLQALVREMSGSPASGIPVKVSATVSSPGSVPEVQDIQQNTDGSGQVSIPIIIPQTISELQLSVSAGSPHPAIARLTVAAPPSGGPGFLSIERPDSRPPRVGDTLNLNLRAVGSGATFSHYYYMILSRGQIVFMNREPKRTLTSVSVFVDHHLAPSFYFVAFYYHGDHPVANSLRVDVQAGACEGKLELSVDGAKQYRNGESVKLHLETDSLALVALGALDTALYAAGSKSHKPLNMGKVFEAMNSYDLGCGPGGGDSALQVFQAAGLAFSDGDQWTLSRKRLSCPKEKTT
T1 sequence (P0C0L4 757-1446, chain 2 of 3): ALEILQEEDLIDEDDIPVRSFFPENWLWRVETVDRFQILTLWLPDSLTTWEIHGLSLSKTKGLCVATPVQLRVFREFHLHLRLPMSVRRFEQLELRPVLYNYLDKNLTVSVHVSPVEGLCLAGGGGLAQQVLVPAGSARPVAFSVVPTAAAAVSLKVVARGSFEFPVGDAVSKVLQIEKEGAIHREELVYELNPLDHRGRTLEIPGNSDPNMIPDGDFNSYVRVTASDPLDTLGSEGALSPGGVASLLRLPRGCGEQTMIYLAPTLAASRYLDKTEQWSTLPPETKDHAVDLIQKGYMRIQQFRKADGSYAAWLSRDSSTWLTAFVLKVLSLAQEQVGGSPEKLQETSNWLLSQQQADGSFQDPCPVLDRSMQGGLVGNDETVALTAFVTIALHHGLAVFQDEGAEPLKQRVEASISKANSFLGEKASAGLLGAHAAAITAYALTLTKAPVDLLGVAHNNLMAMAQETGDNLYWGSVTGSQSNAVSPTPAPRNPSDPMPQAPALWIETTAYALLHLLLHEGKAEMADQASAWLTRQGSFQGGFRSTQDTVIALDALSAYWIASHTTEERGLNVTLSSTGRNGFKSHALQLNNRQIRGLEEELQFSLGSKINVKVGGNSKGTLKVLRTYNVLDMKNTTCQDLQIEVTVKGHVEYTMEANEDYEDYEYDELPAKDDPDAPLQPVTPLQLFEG
T1 sequence (P0C0L4 1454-1744, chain 3 of 3): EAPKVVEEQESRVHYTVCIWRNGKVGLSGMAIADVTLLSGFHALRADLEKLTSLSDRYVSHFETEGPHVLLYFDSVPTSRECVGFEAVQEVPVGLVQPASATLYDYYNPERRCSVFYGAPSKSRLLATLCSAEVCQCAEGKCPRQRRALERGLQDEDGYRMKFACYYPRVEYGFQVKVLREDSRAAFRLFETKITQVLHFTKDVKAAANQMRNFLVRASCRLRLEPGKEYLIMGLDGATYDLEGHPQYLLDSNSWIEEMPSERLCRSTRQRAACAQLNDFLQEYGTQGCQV

human complement C4b [2] = biological target: T1, human complement C4b; assay: SPR; biotinylated C4b (50 nM) spotted on a planar streptavidin chip through its thiol group; nanobodies injected in a 14-step twofold dilution series; IBIS-MX96; 20 mM HEPES pH 7.4, 150 mM NaCl, 3 mM MgCl2; simple bimolecular model, NbE3 with mass transport; duplicate; conditions: both partners purified

Binder	Kd (human complement C4b [1]) [nM]	koff (human complement C4b [1]) [s⁻¹]	Kd (human complement C4b [2]) [nM]	koff (human complement C4b [2]) [s⁻¹]
NbB5 (VHH, Vector: modified pHEN6 with thrombin cleavage site and 6xHis, N-terminal pelB leader for periplasmic secretion; no cleavage of the tag is told; source: E. coli BL21 Codon Plus (DE3)-RIL, periplasm, purified (Ni-NTA, SEC)) VHH: EVQLVESGGGLVQPGGSLRLSCAASGFTFSSYHMSWVRQAPGKGLEWISVINDSGDLTRYADSVKGRFTISRDNAKNTLYLQMNSLQPEDTAVYSCLKSSDFYSYSNADSRGQGTQVTVSS	0.067 ± 0.006	1.3e-05	–	–
NbB12 (VHH, Vector: modified pHEN6 with thrombin cleavage site and 6xHis, N-terminal pelB leader; no cleavage of the tag is told; also called NbB12-AF488; source: E. coli BL21 Codon Plus (DE3)-RIL, periplasm, purified (Ni-NTA, SEC)) VHH: EVQLVESGGGLVQAGGSLRLSCVASERTYMAWFRQAPGKEREFVAAITSSGMMTEYAPSVKGRFTISRDNAKNTVYLQMNSLKPEDTAVYYCAADLRQRFGERVTEYDYWGQGTQVTVSS	0.014 ± 0.004	3.8e-06	–	–
NbE3 (VHH, Vector: modified pHEN6 with thrombin cleavage site and 6xHis, N-terminal pelB leader; no cleavage of the tag is told; also called NbBE3; source: E. coli BL21 Codon Plus (DE3)-RIL, periplasm, purified (Ni-NTA, SEC)) VHH: EVQLVESGGGLVQAGGSLRLSCAASGSDFSANAVGWYRQAPGKQRVVVASISSTGNTKYSNSVKGRFTISRDNAKNTVYLQMNSLKPEDTAVYYCWLFRFGIENYWGQGTQVTVSS	–	–	0.318 ± 0.01	0.0066
